Measurements: patent US20230348568A1 (US Dept. of Health and Human Services, published 2023)

Experiments:
[1] = molecular target: Epstein-Barr virus glycoprotein 42 (gp42) (Epstein-Barr virus) (UniProt P03205); experiment: cell-based or functional assay
[2] = molecular target: EBV gH/gL/gp42 heterotrimer (recombinant protein) (Epstein-Barr virus) (UniProt P03231); experiment: BLI cross-competition; gH/gL/gp42 on the biosensor pre-saturated with primary mAb A10, then binding of this secondary mAb measured; high value = secondary blocked
[3] = molecular target: EBV gH/gL/gp42 heterotrimer (recombinant protein) (Epstein-Barr virus) (UniProt P03231); experiment: BLI cross-competition; gH/gL/gp42 on the biosensor pre-saturated with primary mAb 4C12, then binding of this secondary mAb measured; high value = secondary blocked
[4] = molecular target: EBV gH/gL/gp42 heterotrimer (recombinant protein) (Epstein-Barr virus) (UniProt P03231); experiment: BLI cross-competition; gH/gL/gp42 on the biosensor pre-saturated with primary mAb F2-1, then binding of this secondary mAb measured (self pair); high value = secondary blocked
[5] = molecular target: T1, Epstein-Barr virus glycoprotein 42 (gp42) (Epstein-Barr virus, UniProt P03205 34-223, limits assumed); experiment: cell-based or functional assay
T1 sequence: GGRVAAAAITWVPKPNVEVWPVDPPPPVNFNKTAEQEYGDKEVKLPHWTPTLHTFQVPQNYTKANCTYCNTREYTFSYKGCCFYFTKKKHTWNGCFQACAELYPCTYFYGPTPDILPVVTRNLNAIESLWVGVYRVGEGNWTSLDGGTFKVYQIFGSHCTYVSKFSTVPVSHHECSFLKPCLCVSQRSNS

[6] = molecular target: T1, Epstein-Barr virus glycoprotein 42 …; experiment: cell-based or functional assay; remark: listed apart in the source
[7] = molecular target: T1, Epstein-Barr virus glycoprotein 42 …; experiment: cell-based or functional assay; remark: listed apart in the source
[8] = molecular target: T2, EBV gH/gL/gp42 heterotrimer (recombinant protein) (Epstein-Barr virus, UniProt P03231 19-679; P03212 23-137); experiment: BLI (Octet RED96e), biotinylated gH/gL/gp42 on streptavidin biosensors, Fab dilution series, 1:1 global fit
T2 construct: Recombinant complex; also called gH/gL/gh42

[9] = molecular target: T2, EBV gH/gL/gp42 heterotrimer …; experiment: BLI, gH/gL/gp42 on the biosensor, dilution series of Fab (legend box shows 5.00E-07), 300 s association, dissociation to 1200 s

With “F2-1 monoclonal antibody (previously described murine anti-gp42 antibody)” the IC50 titer to block glycoprotein-mediated B cell fusion [1] was 111 µg/mL, the IC50 titer to neutralize EBV infection in B cells [1] was 0.584 µg/mL and the cross-competition (name or unit not given) [2] was 100. For the same molecule, the cross-competition (name or unit not given) [3] was 8.9 and the cross-competition (name or unit not given) [4] was 95.4.

B1: A10 monoclonal antibody (cynomolgus monkey variable regions on human IgG1 constant region) (antibody, V domains shown)
VH: QVQLQESGPGLVKPSQTLSLTCAISGDSVSSNSATWNWIRQSPSRGLEWLGRTYYRSKWYYDYAQSVQNRISINPDTSKNQFSLQLNSVTPEDMAVYYCARGDFDAFDFWGQGLRVTVSS
VL: SYELTQPPSVSAASGQTARITCGGDNIGSKNVQWYQQKPAQAPVLVIYADSKRPSGVPERFSGSNSGNTATLTISGVEAGDEADYYCQVWDRSSNIFGVGTRLTVLG
B1 was tested, and the “effectiveness in blocking B cell fusion relative to F2-1” value [5] was roughly 50 fold, the “neutralization potency relative to F2-1” value [5] was roughly 14 fold and the “IC50 titer to neutralize EBV infection in B cells” value [6] was 0.0391 µg/mL. The “IC50 titer to block glycoprotein-mediated B cell fusion” value [7] was 2.41 µg/mL.

B2: A10 Fab (Fab, V domains shown)
VH: B1 VH
VL: B1 VL
notes: Fab of A10
In the case of B2, the “IC50 titer to block glycoprotein-mediated B cell fusion” value [7] is reported as 1.73 µg/mL, the Kd [8] is reported as 0.149 nM and the koff [8] is reported as 0.000227 s⁻¹. For the same molecule, the kon [8] was 1.54e+06 M⁻¹ s⁻¹.

B3: 4C12 Fab (Fab, V domains shown)
VH: EVQLQQSGPELVKPGASVKISCKASGYTFTDYNMHWVKQSHGKNLEWIGFIYLYNGGTGYNQNFKSKATLTVDNSSSTAYMELRSLTSEDSAVFYCARDYYGNPYAMDYWGQGTSVTVSS
VL: DIQMTQTTSSLSASLGDRVTISCRASQDISNYLNWYQQKPDGTVKLLIYYTSRLRSGVPSRFSGSGSGTDYSLTINNLEQEDIATYFCQQGNTLPFTFGSGTKLEIK
notes: Fab of mAb 4C12; how the Fab was made is not described
B3 gave a Kd [9] of 57.9 nM.
